Measurements as given in patent publication US20200121803A1 (published 2020).

T1: human CD98, endogenously expressed on Molt-4 human acute lymphoblastic leukemia cells (human)
T1 chain: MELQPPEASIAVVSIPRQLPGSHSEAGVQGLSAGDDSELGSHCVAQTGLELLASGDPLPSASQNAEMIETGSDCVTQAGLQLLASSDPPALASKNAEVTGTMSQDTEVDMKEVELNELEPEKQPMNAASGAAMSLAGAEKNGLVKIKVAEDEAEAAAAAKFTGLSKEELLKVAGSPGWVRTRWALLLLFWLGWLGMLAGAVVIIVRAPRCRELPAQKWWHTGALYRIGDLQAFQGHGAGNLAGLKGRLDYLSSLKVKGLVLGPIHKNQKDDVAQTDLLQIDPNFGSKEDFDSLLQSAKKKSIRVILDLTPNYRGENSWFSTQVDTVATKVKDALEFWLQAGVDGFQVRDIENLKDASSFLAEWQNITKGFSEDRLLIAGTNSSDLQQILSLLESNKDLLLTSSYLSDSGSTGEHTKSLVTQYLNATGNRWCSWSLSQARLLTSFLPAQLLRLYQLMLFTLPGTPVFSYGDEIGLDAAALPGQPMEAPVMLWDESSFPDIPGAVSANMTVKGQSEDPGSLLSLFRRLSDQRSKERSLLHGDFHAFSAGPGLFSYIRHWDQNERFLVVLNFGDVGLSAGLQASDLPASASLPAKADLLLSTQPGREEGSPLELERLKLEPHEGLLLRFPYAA


Biological target: T1, human CD98, endogenously expressed on …
Test: cell-based or functional assay

Row | Binder | % Cell Viability at 50 nM (Molt-4) [%] | Molt4 IC50 (nM), 50% inhibition of cell proliferation, 72 h, ATPlite [nM]
1 | CD98 (CL-huAb110)-XW (antibody, human IgG1, kappa, L234A L235A, V domains shown, synthon XW on reduced cysteine (see heavy chain); Bcl-xL inhibitor synthon XW on cysteines freed by TCEP reduction (Method G); DAR 3.2 by MS for the whole ADC) VH: EVQLVQSGAEVKKPGASVKVSCKASGFTFSDYTMAWVRQAPGQGLEWVATIIYDARGTYYRDAVKGRFTITRDNSTSTLYLELSSLRSEDTAVYYCARQSDDTYYYWGYFDYWGQGTMVTVSS VL: DIVMTQTPLSLPVTPGEPASINCKSSQSLLFSGNQKNYLAWYLQKPGQSPQLLIYWASTRQSGVPDRFSGSGSGTDFTLKISRVEAEDVGIYYCQQYYSSPYTFGQGTKLEIKR | 19.6 | 0.308
2 | CD98 (CL-huAb102)-SE (antibody, human IgG1, kappa, L234A L235A, V domains shown, synthon SE on reduced cysteine (see heavy chain); Bcl-xL inhibitor synthon SE on cysteines freed by TCEP reduction (Method A); DAR 2.2 by MS for the whole ADC) VH: EVQLVESGGGLVQPGGSLRLSCATSGFTFIDYYMSWVRQAPGKGLEWLGFIRNKANRYTTEYSASVKGRFTISRDNSKSILYLQMNSLKTEDTAVYYCTRDRPAWFVYWGQGTLVTVSS VL: DIVMTQTPLSLPVTPGEPASISCKSSQSLLYSSNQKNYLAWYLQKPGQSPQLLIYWASTRESGVPDRFSGSGSGTDFTLKISRVEAEDVGVYYCQQYYSYPYTFGGGTKVEIKR | 19.7 | 0.107
3 | CD98 (CL-huAb104)-SE (antibody, human IgG1, kappa, L234A L235A, V domains shown, synthon SE on reduced cysteine (see heavy chain); Bcl-xL inhibitor synthon SE on cysteines freed by TCEP reduction (Method A); DAR 2.4 by MS for the whole ADC) VH: EVQLVESGGGLVQPGGSLRLSCATSGFTFIDYYMSWVRQAPGKGLEWLGFIRNKAYGYTTEYSASVKGRFTISRDNSKSILYLQMNSLKTEDTAVYYCTRDRPAWFVYWGQGTLVTVSS VL: DIVMTQTPLSLPVTPGEPASISCKSSQSLLYSSNQKNYLAWYLQKPGQSPQLLIYWASTRESGVPDRFSGSGSGTDFTLKISRVEAEDVGVYYCQQYYSYPYTFGGGTKVEIKR | 17.1 | 0.149
4 | CD98 (CL-huAb110)-SE (antibody, human IgG1, kappa, L234A L235A, V domains shown, synthon SE on reduced cysteine (see heavy chain); Bcl-xL inhibitor synthon SE on cysteines freed by TCEP reduction (Method A); DAR 1.9 by MS for the whole ADC) VH: EVQLVQSGAEVKKPGASVKVSCKASGFTFSDYTMAWVRQAPGQGLEWVATIIYDARGTYYRDAVKGRFTITRDNSTSTLYLELSSLRSEDTAVYYCARQSDDTYYYWGYFDYWGQGTMVTVSS VL: DIVMTQTPLSLPVTPGEPASINCKSSQSLLFSGNQKNYLAWYLQKPGQSPQLLIYWASTRQSGVPDRFSGSGSGTDFTLKISRVEAEDVGIYYCQQYYSSPYTFGQGTKLEIKR | 5.7 | 0.502
5 | CD98 (CL-huAb102)-SR (antibody, human IgG1, kappa, L234A L235A, V domains shown, synthon SR on reduced cysteine (see heavy chain); Bcl-xL inhibitor synthon SR on cysteines freed by TCEP reduction (Method A); DAR 2.1 by MS for the whole ADC) VH: EVQLVESGGGLVQPGGSLRLSCATSGFTFIDYYMSWVRQAPGKGLEWLGFIRNKANRYTTEYSASVKGRFTISRDNSKSILYLQMNSLKTEDTAVYYCTRDRPAWFVYWGQGTLVTVSS VL: DIVMTQTPLSLPVTPGEPASISCKSSQSLLYSSNQKNYLAWYLQKPGQSPQLLIYWASTRESGVPDRFSGSGSGTDFTLKISRVEAEDVGVYYCQQYYSYPYTFGGGTKVEIKR | 12.7 | 0.03
6 | CD98 (CL-huAb104)-SR (antibody, human IgG1, kappa, L234A L235A, V domains shown, synthon SR on reduced cysteine (see heavy chain); Bcl-xL inhibitor synthon SR on cysteines freed by TCEP reduction (Method A); DAR 2.2 by MS for the whole ADC) VH: EVQLVESGGGLVQPGGSLRLSCATSGFTFIDYYMSWVRQAPGKGLEWLGFIRNKAYGYTTEYSASVKGRFTISRDNSKSILYLQMNSLKTEDTAVYYCTRDRPAWFVYWGQGTLVTVSS VL: DIVMTQTPLSLPVTPGEPASISCKSSQSLLYSSNQKNYLAWYLQKPGQSPQLLIYWASTRESGVPDRFSGSGSGTDFTLKISRVEAEDVGVYYCQQYYSYPYTFGGGTKVEIKR | 2.7 | 0.045
7 | CD98 (CL-huAb110)-SR (antibody, human IgG1, kappa, L234A L235A, V domains shown, synthon SR on reduced cysteine (see heavy chain); Bcl-xL inhibitor synthon SR on cysteines freed by TCEP reduction (Method A); DAR printed as '.0.7' by MS for the whole ADC) VH: EVQLVQSGAEVKKPGASVKVSCKASGFTFSDYTMAWVRQAPGQGLEWVATIIYDARGTYYRDAVKGRFTITRDNSTSTLYLELSSLRSEDTAVYYCARQSDDTYYYWGYFDYWGQGTMVTVSS VL: DIVMTQTPLSLPVTPGEPASINCKSSQSLLFSGNQKNYLAWYLQKPGQSPQLLIYWASTRQSGVPDRFSGSGSGTDFTLKISRVEAEDVGIYYCQQYYSSPYTFGQGTKLEIKR | 11 | 0.332
8 | CD98 (CL-huAb102)-YG (antibody, human IgG1, kappa, L234A L235A, V domains shown, synthon YG on reduced cysteine (see heavy chain); Bcl-xL inhibitor synthon YG on cysteines freed by TCEP reduction (Method E); DAR 1.1 by MS for the whole ADC) VH: EVQLVESGGGLVQPGGSLRLSCATSGFTFIDYYMSWVRQAPGKGLEWLGFIRNKANRYTTEYSASVKGRFTISRDNSKSILYLQMNSLKTEDTAVYYCTRDRPAWFVYWGQGTLVTVSS VL: DIVMTQTPLSLPVTPGEPASISCKSSQSLLYSSNQKNYLAWYLQKPGQSPQLLIYWASTRESGVPDRFSGSGSGTDFTLKISRVEAEDVGVYYCQQYYSYPYTFGGGTKVEIKR | 31.9 | 1.21
9 | CD98 (CL-huAb104)-YG (antibody, human IgG1, kappa, L234A L235A, V domains shown, synthon YG on reduced cysteine (see heavy chain); Bcl-xL inhibitor synthon YG on cysteines freed by TCEP reduction (Method E); DAR 1.3 by MS for the whole ADC) VH: EVQLVESGGGLVQPGGSLRLSCATSGFTFIDYYMSWVRQAPGKGLEWLGFIRNKAYGYTTEYSASVKGRFTISRDNSKSILYLQMNSLKTEDTAVYYCTRDRPAWFVYWGQGTLVTVSS VL: DIVMTQTPLSLPVTPGEPASISCKSSQSLLYSSNQKNYLAWYLQKPGQSPQLLIYWASTRESGVPDRFSGSGSGTDFTLKISRVEAEDVGVYYCQQYYSYPYTFGGGTKVEIKR | 25.3 | 2.67
10 | CD98 (CL-huAb110)-YG (antibody, human IgG1, kappa, L234A L235A, V domains shown, synthon YG on reduced cysteine (see heavy chain); Bcl-xL inhibitor synthon YG on cysteines freed by TCEP reduction (Method E); DAR 2.8 by MS for the whole ADC) VH: EVQLVQSGAEVKKPGASVKVSCKASGFTFSDYTMAWVRQAPGQGLEWVATIIYDARGTYYRDAVKGRFTITRDNSTSTLYLELSSLRSEDTAVYYCARQSDDTYYYWGYFDYWGQGTMVTVSS VL: DIVMTQTPLSLPVTPGEPASINCKSSQSLLFSGNQKNYLAWYLQKPGQSPQLLIYWASTRQSGVPDRFSGSGSGTDFTLKISRVEAEDVGIYYCQQYYSSPYTFGQGTKLEIKR | 10 | 0.493
11 | CD98 (CL-huAb102)-KZ (antibody, human IgG1, kappa, L234A L235A, V domains shown, synthon KZ on reduced cysteine (see heavy chain); Bcl-xL inhibitor synthon KZ on cysteines freed by TCEP reduction (Method A); DAR 2.8 by MS for the whole ADC) VH: EVQLVESGGGLVQPGGSLRLSCATSGFTFIDYYMSWVRQAPGKGLEWLGFIRNKANRYTTEYSASVKGRFTISRDNSKSILYLQMNSLKTEDTAVYYCTRDRPAWFVYWGQGTLVTVSS VL: DIVMTQTPLSLPVTPGEPASISCKSSQSLLYSSNQKNYLAWYLQKPGQSPQLLIYWASTRESGVPDRFSGSGSGTDFTLKISRVEAEDVGVYYCQQYYSYPYTFGGGTKVEIKR | 20.7 | 0.062
12 | CD98 (CL-huAb104)-KZ (antibody, human IgG1, kappa, L234A L235A, V domains shown, synthon KZ on reduced cysteine (see heavy chain); Bcl-xL inhibitor synthon KZ on cysteines freed by TCEP reduction (Method A); DAR 2.6 by MS for the whole ADC) VH: EVQLVESGGGLVQPGGSLRLSCATSGFTFIDYYMSWVRQAPGKGLEWLGFIRNKAYGYTTEYSASVKGRFTISRDNSKSILYLQMNSLKTEDTAVYYCTRDRPAWFVYWGQGTLVTVSS VL: DIVMTQTPLSLPVTPGEPASISCKSSQSLLYSSNQKNYLAWYLQKPGQSPQLLIYWASTRESGVPDRFSGSGSGTDFTLKISRVEAEDVGVYYCQQYYSYPYTFGGGTKVEIKR | 21.2 | 0.089
13 | CD98 (CL-huAb102)-KZ (second row with this label, r76, DAR 2.2) (antibody, human IgG1, kappa, L234A L235A, V domains shown, synthon KZ on reduced cysteine (see heavy chain); Bcl-xL inhibitor synthon KZ on cysteines freed by TCEP reduction (Method A); DAR 2.2 by MS for the whole ADC) VH: EVQLVESGGGLVQPGGSLRLSCATSGFTFIDYYMSWVRQAPGKGLEWLGFIRNKANRYTTEYSASVKGRFTISRDNSKSILYLQMNSLKTEDTAVYYCTRDRPAWFVYWGQGTLVTVSS VL: DIVMTQTPLSLPVTPGEPASISCKSSQSLLYSSNQKNYLAWYLQKPGQSPQLLIYWASTRESGVPDRFSGSGSGTDFTLKISRVEAEDVGVYYCQQYYSYPYTFGGGTKVEIKR | 16.2 | 0.35
